# Experiments:
# Experiment in all cases: crystal structure; hanging drop; protein in 25 mM HEPES pH 7.5, 150 mM NaCl, 5% glycerol with 5 mM glutamate or 1 mM KA, mixed 1:1 with reservoir (19-27% PEG 4000, 0-9% propan-2-ol, 80 mM sodium acetate); data collected at 100 K; LBD dimer, one (I222) or two (P212121) dimers in the asymmetric unit
# [1] = biological target: GluK2 R775A ligand-binding domain (rat) (UniProt P42260)
# [2] = biological target: GluK2 K531A-T779G ligand-binding domain (rat) (UniProt P42260)
# [3] = biological target: GluK2 K531A ligand-binding domain (rat) (UniProt P42260)
substance,measurement,setting,value
GluK2 R775A ligand-binding domain (from UniProt P42260 32-544; P42260 667-908) (domain or fragment),stoichiometry N,[1],2
GluK2 K531A-T779G ligand-binding domain (from UniProt P42260 32-544; P42260 667-908) (domain or fragment),stoichiometry N,[2],2
GluK2 K531A ligand-binding domain (from UniProt P42260 32-544; P42260 667-908) (domain or fragment),stoichiometry N,[3],2

# — publication PMC3866869
